The results in this text go back to publication doi:10.1101/2025.01.13.632879.

What all share (test): SEC
The target in test [1] is Clostridioides difficile GerS K71R, His6-tagged (Clostridioides difficile).
In test [2] the target is GerS ortholog from Paraclostridium sordellii, His6-tagged (Paraclostridium sordellii).
Test [3] concerns the target Clostridioides difficile GerS, His6-tagged (wild type) (Clostridioides difficile).
In test [4] the target is Clostridioides difficile GerS N74L, His6-tagged (Clostridioides difficile).
The target in test [5] is GerS ortholog from Paraclostridium bifermentans, His6-tagged (Paraclostridium bifermentans).
In test [6] the target is Clostridioides difficile GerS T72P, His6-tagged (Clostridioides difficile).

Substance “Clostridioides difficile GerS K71R, His6-tagged (natural protein)” displayed a stoichiometry N in test [1] of 2.

In test [2], “GerS ortholog from Paraclostridium sordellii, His6-tagged (natural protein)” came in with a stoichiometry N of 2.

“Clostridioides difficile GerS, His6-tagged (wild type) (natural protein)”: the stoichiometry N in test [3] was 2.

In test [4], “Clostridioides difficile GerS N74L, His6-tagged (natural protein)” had a stoichiometry N of 2.

Turning to “GerS ortholog from Paraclostridium bifermentans, His6-tagged (natural protein)”, the stoichiometry N in test [5] stood at 2.

The substance “Clostridioides difficile GerS T72P, His6-tagged (natural protein)” yielded a stoichiometry N in test [6] of 2.
